Values belong to the binder of their own block, whether it stands above or below them.
Assays:
[1] = biological target: T1, human CD3 on primary human pan-T cells (human, UniProt P07766 23-207; P09693 23-182; P04234 22-171; P20963 22-164); experiment: Mirrorball laser scanning imaging cytometry on primary human pan-T cells with 600 µM HSA; detection with anti-penta-His Alexa Fluor 488; Median (FL-2 Mean Intensity) [B]
T1 construct: whole, on cells; Native CD3 complex (pairs εγ, εδ, ζζ) on T cells isolated from human PBMCs; it is associated with the T cell receptor on the cells; also called CD3 on Pan-T cells; CD3 on T cells
Procedure: The determination of CD3 binding was performed with primary human T cells using Mirrorball laser scanning imaging cytometry. Therefore, primary T cells were isolated from human peripheral blood mononuclear cells (PBMCs) using a pan-T cell purification kit (Miltenyi Biotec). […] To generate the tri-specific TCE proteins, DARPin® protein #1, DARPin® protein #2, DARPin® protein #3 and DARPin® protein #4, respectively, was subcloned and expressed as described above into a derivative of the pQE30 (Qiagen) expression vector, encoding an N-terminal His-tag, followed by two different TAA-specific ankyrin repeat domains (in the order TAA2- and TAA3-specific, respectively), and then followed by one of the CD3-specific ankyrin repeat domains of the invention. […] After washing, CD3 binding was detected by 1:100-diluted anti-penta-His Alexa Fluor 488 antibody (Qiagen). […] Median of mean fluorescence intensities of Alexa Fluor 488 binding on far-red counterstained cells were measured by Mirrorball using Cellista software (SPT Labtech) and data was plotted using GraphPad Prism 8.

[2] = biological target: T2, biotinylated human scCD3εγ (scCD3εγ_Avi-Bio): single-chain human CD3ε/CD3γ extracellular domains joined by a … (human, biotinylated in vitro with BirA at the C-terminal Avi-tag); experiment: ribosome display selection; crude extract HTRF on recombinant human CD3 target
T2 construct: monomeric; also called recombinant human CD3 target; human CD3 (SPR)
T2 chain: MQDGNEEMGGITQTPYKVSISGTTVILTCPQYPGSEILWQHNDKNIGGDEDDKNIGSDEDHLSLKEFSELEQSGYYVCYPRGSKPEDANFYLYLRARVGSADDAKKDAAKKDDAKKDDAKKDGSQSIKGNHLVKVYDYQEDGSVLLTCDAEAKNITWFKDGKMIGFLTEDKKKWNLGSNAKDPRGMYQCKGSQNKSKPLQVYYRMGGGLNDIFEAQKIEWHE
Excerpt: Using ribosome display (Hanes, J. and Plückthun, A., PNAS 94, 4937-42, 1997), many ankyrin repeat proteins with binding specificity for human scCD3 were selected from DARPin® libraries similar as described by Binz et al. 2004 (loc. cit.). […] For example, the ankyrin repeat domain of SEQ ID NO: 1 constitutes an amino acid sequence of a selected binding protein comprising an ankyrin repeat domain with binding specificity for scCD3. Individual ankyrin repeat modules from such ankyrin repeat domains with binding specificity to scCD3 are provided, e.g., in SEQ ID NO: 5 to 9.

[3] = biological target: biotinylated human scCD3εγ (scCD3εγ_Avi-Bio): single-chain human CD3ε/CD3γ extracellular domains joined by a 26 amino acid linker, with a C-terminal Avi-tag (human); experiment: SPR (ProteOn), biotinylated scCD3εγ on NLC chip, DARPin as analyte 4-64 nM, PBS with 0.005% Tween 20; n = 6
[4] = biological target: T1, human CD3 on primary human pan-T cells; experiment: Mirrorball laser scanning imaging cytometry on primary human pan-T cells, 600 µM HSA, anti-penta-His Alexa Fluor 488 detection
[5] = biological target: T1, human CD3 on primary human pan-T cells; experiment: Mirrorball laser scanning imaging cytometry on primary human pan-T cells with 600 µM HSA; detection with anti-penta-His Alexa Fluor 488; Median (FL-2 Mean Intensity) [A]
[6] = biological target: biotinylated human scCD3εγ (scCD3εγ_Avi-Bio): single-chain human CD3ε/CD3γ extracellular domains joined by a 26 amino acid linker, with a C-terminal Avi-tag (human); experiment: SPR (ProteOn), biotinylated scCD3εγ on NLC chip, DARPin as analyte 4-64 nM, PBS with 0.005% Tween 20; n = 2
[7] = biological target: biotinylated human scCD3εγ (scCD3εγ_Avi-Bio): single-chain human CD3ε/CD3γ extracellular domains joined by a 26 amino acid linker, with a C-terminal Avi-tag (human); experiment: SPR (ProteOn), biotinylated scCD3εγ on NLC chip, DARPin as analyte 4-64 nM, PBS with 0.005% Tween 20; n = 4

T1 sequence (P07766 23-207, chain 1 of 4): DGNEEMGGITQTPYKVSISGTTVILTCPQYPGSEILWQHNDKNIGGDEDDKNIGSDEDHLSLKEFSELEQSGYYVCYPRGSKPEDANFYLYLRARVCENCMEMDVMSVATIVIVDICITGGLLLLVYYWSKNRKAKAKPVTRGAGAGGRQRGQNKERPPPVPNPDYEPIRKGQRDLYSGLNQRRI
T1 sequence (P09693 23-182, chain 2 of 4): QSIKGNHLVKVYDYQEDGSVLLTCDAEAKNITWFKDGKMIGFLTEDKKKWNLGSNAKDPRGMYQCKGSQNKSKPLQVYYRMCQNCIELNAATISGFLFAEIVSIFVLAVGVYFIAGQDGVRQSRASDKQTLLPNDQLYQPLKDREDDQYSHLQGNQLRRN
T1 sequence (P04234 22-171, chain 3 of 4): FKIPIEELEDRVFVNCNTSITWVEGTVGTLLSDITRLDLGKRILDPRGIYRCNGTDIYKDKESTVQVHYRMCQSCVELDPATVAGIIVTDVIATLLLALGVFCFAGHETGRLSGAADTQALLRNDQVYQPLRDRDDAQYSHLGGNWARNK
T1 sequence (P20963 22-164, chain 4 of 4): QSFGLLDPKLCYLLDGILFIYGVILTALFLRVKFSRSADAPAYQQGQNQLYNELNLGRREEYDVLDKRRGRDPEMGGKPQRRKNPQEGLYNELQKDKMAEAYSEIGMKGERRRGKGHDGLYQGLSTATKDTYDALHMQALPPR

B3: DARPin® protein D with half-life extension (tetraspecific format: His-tag, HSA-specific domain, TAA2-specific domain, TAA3-specific domain, DARPin® protein #4) (designed binder, not shown: large carriers; small tags and cut ends)
chain: DLGQKLLEAAWAGQLDEVRILLKAGADVNAKNSRGWTPLHTAAQTGHLEIFEVLLKAGADVNAKTNKRVTPLHLAAALGHLEIVEVLLKAGADVNARDTWGTTPADLAAKYGHRDIAEVLQKAA
notes: also called half-life extended DARPin® protein D; DARPin® protein #H
EC50 (read off the curve) [1]: ~20 nM

B5: DARPin® protein #2 with TAA2/TAA3 domains (trispecific format: His-tag, TAA2-specific domain, TAA3-specific domain, CD3-specific domain) (designed binder, part only; not given: CD123 and CD33 DARPin domains, not shown: small tags and cut ends)
chain, part: MRGSHHHHHHGSGSPTPTPTTPTPTPTTPTPTPTGSPTPTPTTPTPTPTTPTPTPTDLGQKLLEAAWAGQDDEVRELLKAGADVNAKNSRGWTPLHTAAQTGHLEIFEVLLKAGADVNAKDDKGVTPLHLAAALGHLEIVEVLLKAGADVNAQDSWGTTPADLAAKYGHEDIAEVLQKAA
Kd [6]: 35 nM
koff [6]: 0.0015 s⁻¹
kon [6]: 49000 M⁻¹ s⁻¹
EC50 [4]: 250 to 400 nM

B6: DARPin® protein #3 with TAA2/TAA3 domains (trispecific format: His-tag, TAA2-specific domain, TAA3-specific domain, CD3-specific domain) (designed binder, part only; not given: CD123 and CD33 DARPin domains, not shown: small tags and cut ends)
chain, part: MRGSHHHHHHGSGSPTPTPTTPTPTPTTPTPTPTGSPTPTPTTPTPTPTTPTPTPTDLGQKLLEAAWAGQDDEVRELLKAGADVNAKNSRGWTPLHTAAQTGHLEIFEVLLKAGADVNAKNDKRVTPLHLAAALGHLEIVEVLLKAGADVNARDSWGTTPADLAAKYGHQDIAEVLQKAA
EC50 [4]: 50 to 100 nM
Kd [7]: 15 nM
koff [7]: 0.0013 s⁻¹
kon [7]: 89000 M⁻¹ s⁻¹

Results, then the binder that gave them:

binding result [1]: no binding (tested: about 3000 nM)
B1: DARPin® protein A (with HSA) (designed binder)
single chain: DLGQKLLEAAWAGQDDEVRELLKAGADVNAKDSQGWTPLHTAAQTGHLEIFEVLLKAGADVNAKDDKGVTPLHLAAALGHLEIVEVLLKAGADVNAQDSWGTTPADLAAKYGHEDIAEVLQKAA
notes: The MOLECULES list holds the half-life extended forms of B, C and D only; also called DARPin® protein A with half-life extension

binding result [2]: binds
B2: SEQ ID NO 1 (designed binder)
chain: DLGQKLLEAAWAGQDDEVRELLKAGADVNAKDSQGWTPLHTAAQTGHLEIFEVLLKAGADVNAKDDKGVTPLHLAAALGHLEIVEVLLKAGADVNAQDSWGTTPADLAAKYGHEDIAEVLQKAA
notes: also called CD3-specific domain of DARPin® protein #1

Kd [3]: 6 nM
koff [3]: 0.00041 s⁻¹
kon [3]: 82000 M⁻¹ s⁻¹
EC50 [4]: 5 to 15 nM
EC50 (read off the curve) [5]: 6 nM
B4: DARPin® protein #4 with TAA2/TAA3 domains (trispecific format: His-tag, TAA2-specific domain, TAA3-specific domain, CD3-specific domain) (designed binder, part only; not given: CD123 and CD33 DARPin domains, not shown: small tags and cut ends)
chain, part: MRGSHHHHHHGSGSPTPTPTTPTPTPTTPTPTPTGSPTPTPTTPTPTPTTPTPTPTDLGQKLLEAAWAGQLDEVRILLKAGADVNAKNSRGWTPLHTAAQTGHLEIFEVLLKAGADVNAKTNKRVTPLHLAAALGHLEIVEVLLKAGADVNARDTWGTTPADLAAKYGHRDIAEVLQKAA

Source: patent US20240052033A1 (Molecular Partners, published 2024)
